Assay: soluble fraction after stress (log2 fold change); higher = more stays soluble; pooled small domains, quantitative proteomics
Details: stress: 75 degC
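Further: 20 min heating vs room temperature control held 20 min.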

Sequence | soluble fraction (log2)
HMSGEPKNERQIEVPDVTKKSIREANNILTSEGLRLRIEGTGLAVSQKPAAGTMVEPDTIITVTFQAP | 0.441
HMSGHEVMVQRITAIIAELYQYGFVSRKKMMDEFNISERTLYRDLNRLGDRIVPDGDGIYRLAPAYA | -1.55
HMSGHIPGIKIKGVIFFDKGSSSNHIIATTENNSNLKLRVGETVQGAVLKSIHPNHVIFFHHNQLIEVGIG | -4.39
HMSGKGEFDQLLRSGEYVQAFQRANANGNVTLRRQQLLNLARHQAASGVGSGAIESLSTIQRI | 0.00597
HMSGKMTVPNVVGKTETEAKSALSAKGFTNVRTETVDSTEAAGTVVKQSLDADSVQDPKTEIVLSVSNG | 0.946
HMSGKWKIRILWYIAEYEVQRFGELRRRLGDITQSTLTEQLRELEQDGFVSRYVYQEVPSKVEYSLTE | 0.197
HMSGKWSILILHALEQGPKRFNVLHRELSGITQATLTKQLRQLEEDGIILRKAYPQIPPKVEYQLTEIG | -1.82
HMSGNPLDTYYSKWSAEIKKGSPNAVISKEGDKYYVSIPGENRMAIIYENPHLIRMVNATRNIHVE | -0.092
HMSGPSDRDLFDEALALLSGSGREPDYHEARIRLGTLVEQFPESKWAEGAKALLSMLDRVSALQV | 0.247
HMSGPVITEERNIANALISGLANMKETPTREQVERKAQQIAELFGYTGDLRNIITEAMISVDT | -0.0406
HMSGRPPTYTAEERSAVIAAALSRPADLGLPFASWTLDRLVAYLGEKGIGMKRSRMSEVLLAEGLKW | -2.02
HMSGSGYAYVDKYGYSHVVKDYDTAKNYASDGNVYNYSGSHKGGYAYDADNYRVPLDLPGSKPYG | 0.191
HMSGSIIQQAENLERQFGDTREAILGTLSDPKMSEEILETLMERYNKQHGTNWDKNTWAEEWAKANK | 0.682
HMSGSILVQVSATDLNIRKGPGTNYGTTGKYTGKGTFTIVETRSGQGSNAGWGKLKSGAGWISLDYAKR | -1.54
HMSGTESMIEGRGEARTAIDGEGKVFFQGEYWTAQSDQFIPQGAKVRIKKVEGLNLIVEEIK | 0.065
HMSGTYIVTVQANTLDIYKSMTSNDTIGKANKGDVFQILEDMGGGYAKVSYNDVEGYISIKDGDTSIDEM | -0.389
HMSGVIVPDIYNKTLAEAVASLEGEGFSTEKKEGYSDTVPKGNVMSQKPEAGTSAERGSTVTITISQGPQ | 0.0579
HMSGWIATGTATSTGNDVRVRSTPDATVNNNILLTLNKGNRFEIDGQTQNGFYHIKVNDTIGWISGLYVKE | -0.976
HMSGYFSDKKLNELFEQYLIMREKKGKPVVGYQLKILIDRLNQVAANTKEKIEVVSNAIAGDWNTFYPIKR | -2.07
HMSHDTLVYRLAQMLVKLNQGEKLDPQQLAEEFGVNLRTIQRDLNVRFAYLQLEKTDGRYHLDPTFL | -1.46
HMSHLTKKQEEVLLFIRDYYEEEGRSPSYSDIQHHFGLKSKSSVQDYIGYLKKAGFLQKSVGSRAIELV | -2.52
HMSHQIIIVAVELDPSTERIVYYLSKNGISINVLFFKVFQHGDEQFLSRVWLIDPSETQTNAALA | -0.726
HMSIESMVGRFGVVTKDVVANEMAGKVKVGREEFRATADIAVSSGTKVKVTHAEGITLTVVPE | 0.611
HMSIGKEATPDDIVPNIRVYHATFGYGNVIKTDGVSHDKKAVVNFDSVGEKTLLLKFAKLILPY | -0.557

Sequence | soluble fraction (log2)
HMSIGLEGFVGKLGISTSDLRPSGWGEFDAKKLFVVTEGEFVDRKEKIEILSVDGNRILVRKIS | -1.56
HMSILPGVYRHYKGNHYQVFYLAKHSETLEDMVVYQALYGERGIWVRPASMWNETVDDQGKQVKRFTYI | -3.58
HMSILYNAVKGTLVSSGALTADSWYKISSFGTASALPALKVGSIFKTPEGAGDAITLASGDSVYPLTLT | -1.28
HMSINQTIEGKKQGYWIIYGNMRNLQEYLSNEVIEEGQFKNSRKEGVWRKYFPGGQMKSEITYINGRP | -0.266
HMSINTIIAKNLNRLRNERNLSLGQLAELSGVSKVMLSQIEKGDSNPTVNTIWKIASGLNVPYTAILDQP | -0.798
HMSIPVLKDGTYESWGNEKVYKVGDRVMVGSNGYVAKWWNQDETPEKAIINPNDSPWRPMTESEIMEVLK | -0.128
HMSISEADAKKIALEKVPGATDSNLRIKTDYDDGIMKYEVKIVYNEMKYEFDIDAATGTILEWESESVY | -1.37
HMSISSSEAARSAVASSGGTVLGVSKASHGGYKAWAVRIQRADGSVVTGYVDRASGTVYDWVVNQAA | -0.663
HMSKEDDSLVVTFRRMLLEEVDLHELSRIDANQRRARLERVIAHLVSREGVILSASERNQLVRRVVDEAV | -2
HMSKEEAIQAMKEGKKVTHRFFSSDEWMTIENGFLLLEDGVRISLEDFFNFRSDSLWDNGYELYNPH | -0.628
HMSKFSDTLVYLRKRAGFSQQELADKMEVSRSLVGMYESGQRMPSYEMLEALADIFNVNIDFLTGH | -1.28
HMSKIRSEINKFSSDADKPILEWLFERYHWASQWRFVARFSEQRYGVLSYEINRVWEPTIEGRALYDQL | -2.27
HMSKKMLASIFDTISGIGKKRLKKIWDNYTSLNELKDDSLENIYAKTQIPINLITKIKEKLE | -0.913
HMSKKMTNEEILNFLKKVLIKHGKISGFIIDEDDNGPSSSVVASRFGGLLNAYKLINYTPER | -0.906
HMSKMTLGENLRLLRREKGLSQEQVAQTLFVARQTISKWENGQAEPGVESLKALAKLYGVSLDRLVGA | -1.01
HMSKPLEVFKLTSEPFGFSFNTALGRSYTVEATGDLGVWKAVELFQGSGGEIRFTAKPTSSGGAQFFRVFV | 0.0649
HMSKPVYILINKPKGFLASSTDKKVKKSVNDLINISNLNKIYPFDNMGRTSSGLLLLSNDLYFKKHFKDKI | 0.451
HMSKQKRIKYFLSILNIKSIKQFRKKDLDYFYQKRFIEIQKSSKDKKLVSNQLIELNAAKEYLDEIDFEN | -3.78
HMSKQQVRSILDDIPNIGETRRKALMRQFQSLEKIREASVGQLREVDGMNEKAAQSVYQFFHK | -0.0426
HMSKQVDVVIYILENTKAADNTYIGTYRKTADGAGVSLDTATKVMRKLQENNFIKKVQNGVYQISPLIMM | -1.42
HMSKRDDLLDQASEWLAKLDRDLTVVEERELKAWLGESAAHRETFIQMAKLWDKMESLSRLTDL | -0.898
HMSKSVEQRRQQIVAWVKEHGQSQVEDLAVRFATSEVTIRKDLAALSQQGLLIRQFGGAVPVPA | -0.982
HMSKTQYTFKEVGSQFQLFAPSTKHTIMISADHPKYGWLTNQDQGRVINVYDTGKMTSSQDYYGLYKEVT | 0.587
HMSKTQYTFREVGSQFELHAPSTNHKIMVDANHPKYGWLSSQEAGRVINVYESGKMTSSQDYYGLYKQS | -0.092

Sequence | soluble fraction (log2)
HMSLANTSVKEMLNDLVKNEEPSKPLSDEALVKIFKEKGVKIARRTVAKYRAELNILPSHLRRT | -1.56
HMSLAVFLQGLLEEKQLKKADVIRRTGMEPTYGYHIFDGHKKHPARSKVLLLALAMGLTVKEAQHLLYYAG | -0.423
HMSLDAAAVASKLIKRLSKSPGRRFALDDLAVDVGLPHEQGRPLVRSALELLVRTQQAVEGPPNVFRLFF | -2.51
HMSLEDMILSLSSRIRRGESLHFRELLVAIETKSGMVTIFMAVLELLKQQVMEMRYEDDDIIFT | -1.04
HMSLEEIPLEERLGPGGLDPVAVYDSLPREMRDAFDSGSVSALREFVNALPAEDAARHMKAMVDSGLWVPT | 0.148
HMSLETRRYQLPRTDAQTASGLLRSLSGLPGVREVNLSGEGVAYLKVDSKGFDEQNVIKLLAGE | 0.47
HMSLHSITIPQEFIGAVIGPGGKVIQEIQKQTGTTITITEKDNKGYVDIFGEDKGALDSALARIKEIVAIP | 0.289
HMSLIDYLNELMNEKNITVAQVAKNSGIGEYVYKIFNGERNAKRDTLVAISFGMHLNFEETQLLLRIA | -1.19
HMSLPALALRQADSLAFKQVIYHDRVVPFNTLARDFVLKLTGKPSYGGMTPEQVVGGWLLRPEVWQNEPM | 0.192
HMSLPAYIKISEVIARRINAGQILAGDRLPNERTMAVEFGVAVGTLRKALYHLQVRGLVTRKHGSGNYINK | -0.221
HMSLPKIVVPTDVTVSQLAKYLEVDAISIIKQLFGMGVVASLNQRLEDEIIQLIGNEFGKEIIFSE | 0.162
HMSLPQSKDAVITILRTLPQLDTRAPEVYKLLGPHALDIILEDPEQVAKKINHVGVATAKLWQQALLGFK | -0.751
HMSLQDYYQVLGVFYNAGDKEIKRRWKELINQYHPDLAQAKGASPEEIENYTLKMAEINNAYEQIMKSRKA | -0.396
HMSLSASELDQLRMMTKVSHMYHTRGMVQIDIARSLGLSQARVSRLLSAAEDANIVRTVVVA | -0.392
HMSLTAQVFTDRGKVLLSENKFTEAIDQFTKALAMDKVYIEALNRRIEAYQHLGLTELAAKDEALLGTL | -1.16
HMSLTPSQDANRSAILDAARDLFARYGFKKTTMEDIAMALRKGKSSLYYYFKNKEDIFQAVIDS | -1.25
HMSMDAVSLANRLLRFFQKRPGRKFTAADLAFETGMNERTGKSLVTSALEILSRTNQIEADGDGFRLKM | 0.0354
HMSMEIQEIIRQLREKNDWSQEDMAERVGLSKNGYAKIERGETNLNLERLEQIANLFDLSVIDLIEMS | -0.764
HMSMEKNWVPSEDVIEILTRAGMNENFIRELIPEFIIYWSERKDVLISYDSKFIEHARLKWAQHNAE | 0.454
HMSMFTPAQVAQTLTVPPSTLRRWAKRFAPFLSPQSGKKRTYTVADLDTFQRIKELSAQGYTFAQIDQAL | -1.32
HMSMLSQERQSLILDIIKEQGSVTVTRLTEILQSSESTVRRDLSYLASKGKINKVHGGATALG | -0.39
HMSMNGNMIHATVIWKGRYFLVKMFFPQLTKPKRAEVQAQIEKAYPGSRVASYHITDYKPGEQFLHV | -1.84

Reference: the domain aggregation screens of Martell et al. (2025)
